From the supplement of paper PMC12042874
± gives the uncertainty stated by the source.

Assay: amyloid nucleation score (Sup35N fusion, yeast selection) (log enrichment); library NNK1; higher = more nucleation; inactive = no reads after selection
How it was run: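 Three technical output replicates were used for random libraries. Psi-negative yeast expressing peptides of 20 random codons fused to Sup35N were induced with 100 μM copper sulfate for 24 hours and grown 7 days at 30°C on medium lacking adenine and uracil, and input and output plasmid inserts were Illumina-sequenced, excluding sequences with under 100 input reads. The nucleation score is the DiMSum log enrichment of output over input reads, centred on the mode score of non-aggregating sequences.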

Substance | amyloid nucleation score
FKLMWNFQDLLVLLLRDRRY | 0.048 ± 0.62
FKLVI | 0.697 ± 0.9
FKSASVRRI | -0.822 ± 0.84
FLACGYMFGFRQSYHRPFRF | 3.35 ± 0.095
FLAYLPSEKC | -0.267 ± 0.44
FLEFVWRALEM | -1.16 ± 0.86
FLFACFMRVAL | 1.46 ± 0.24
FLFLTRRWEFVHMLPVSCEV | -0.817 ± 2.4
FLHRM | 0.062 ± 0.75
FLILVSLGELGVTAI | inactive
FLMDNDKIHYGYISSVCTSY | inactive
FLMKMKMSVFVLEYSILECM | -1.12 ± 1.1
FLMYFQNRV | 0.624 ± 0.33
FLNVARQV | 0.101 ± 1.4
FLNYVMDVLGGRIRDVWWFT | 0.829 ± 0.66
FLPGQNAIFKTLLVCSTVKV | -0.675 ± 1.2
FLPLMIASVSWRL | 0.455 ± 0.64
FLRALCSVGSRHTTPAFDYG | 0.351 ± 0.43
FLRVILRVYLAVLRGNRQCN | -0.716 ± 0.36
FLVWIMGSFPTGRGANRRNS | -0.465 ± 0.51
FLWIA | -0.012 ± 0.56
FLYSSLFDKVNCCNRPPVSS | -0.014 ± 0.7
FMCVGSYDPYPWP | 0.659 ± 0.51
FMDKVFSIP | -0.101 ± 0.78
FMGIGPDVEDLLW | -0.538 ± 0.41
FMLSFDTTFPLKVLIRTSPE | -0.858 ± 0.85

Substance | amyloid nucleation score
FMPYWNTLNFMSYGVRLIHK | 0.231 ± 0.65
FMSICPSTNGRCACRWLRM | 0.857 ± 0.98
FMVACWHSKWAYDNCYYNSS | inactive
FMWKINWRENLYRLYSFSAY | -0.11 ± 0.51
FMYILYYDMWYACASFR | inactive
FNHMLSMVGSRVCYLAMSFV | 0.17 ± 0.58
FNLGTNK | -0.442 ± 0.3
FNLISGKIGYRLLQTCIMMM | -0.963 ± 0.51
FNLSLLRSSCAVH | 1.04 ± 0.62
FNRCMFHFGDEVVKELL | -0.376 ± 0.91
FNRKISFFCN | -0.393 ± 0.4
FNVKSSMRNPGCIPWHRATY | -0.616 ± 1.7
FNWDGQFAVCMWKS | -0.221 ± 0.38
FPMWYYH | -0.366 ± 0.74
FPSLFFLLA | inactive
FPWSGAWMD | 0.029 ± 1
FQATR | -0.238 ± 0.32
FQGRNYECIFVDFLRSQKGV | 0.292 ± 1.2
FQLRNL | 0.414 ± 0.34
FQVFYFGCGRHVMVSSYRWV | -0.363 ± 0.54
FRDFWLDNVLNMMVGCAARD | -0.692 ± 1.2
FRELVDERLRRASQFHWFHF | 0.557 ± 0.8
FRFSGHWGETIASRTG | 0.376 ± 0.95
FRFVG | -1.53 ± 0.83
FRKCVGAQGGSGSWNGCPSE | 1.99 ± 0.23
FRKLAIFHLAE | 0.207 ± 0.69

Substance | amyloid nucleation score
FRLGPLEQ | -1.61 ± 1.7
FRLRL | 0.019 ± 0.83
FRNCVF | -0.141 ± 0.49
FRPMEWLTFCSVRGLLLTIP | inactive
FRRIFSWACPV | 0.352 ± 0.58
FRSELMFSVLPFLGASSVAC | 1.44 ± 0.69
FRSFKNTY | -1.3 ± 0.45
FRSFLLPR | 0.644 ± 0.54
FRTHRPTIFHFIGMRLRTLA | 0.399 ± 0.91
FSALLIPENISD | -1.25 ± 1.7
FSASLNDLGLQKRVNVSVD | -0.413 ± 0.49
FSCYM | 0.245 ± 0.9
FSDTRTGGDSTPKN | 0.108 ± 0.36
FSDVQCG | inactive
FSFYS | -0.44 ± 0.65
FSLNQCVKGHVFGATICTLR | 1.86 ± 0.43
FSMVAPTVILLKYYN | -0.111 ± 0.21
FSPFLIMVSESPFHPIPELR | -0.991 ± 2.4
FSRISCFP | 0.638 ± 0.61
FSRNAAYMIICSTGRRKFWH | 3.75 ± 0.074
FSSCRPMIYLRCTEYNG | -0.41 ± 1.9
FSSNLLECRCLWKTQASNST | 0.271 ± 0.33
FSTFYY | inactive
FSTLICIGVE | -0.35 ± 0.65
FSVNILQQFIMGQSRICVGA | -0.044 ± 0.38
FSVYAWGVFFDAVWFSCAVA | 1.29 ± 0.84

Substance | amyloid nucleation score
FSWTYVYYNN | 0.433 ± 0.89
FSYRWGLVFSFRDVKLL | 2.27 ± 0.11
FTCFATCCVLMNNVYYFMTL | 5.085 ± 0.05
FTCLVNSNSPL | 0.606 ± 0.71
FTCMCH | inactive
FTFKWMGSPWLWR | 0.485 ± 1.2
FTFSFLYFFQWCHTGAPARF | 0.602 ± 0.73
FTIIFSTYISMVVVDLRVVP | -0.409 ± 0.36
FTISGLYSFFVSLLGKEYYG | -0.074 ± 0.43
FTMLYSVYPSGRPGSQSGR | 1.92 ± 0.21
FTQRSSVR | 0.651 ± 0.7
FTRDVYRWKYPNYLVKYSTP | -0.199 ± 0.85
FTSLYSNILHKSTCLQ | 0.288 ± 0.9
FTSRRATCDIGNSMNACFER | 1.5 ± 0.73
FTVLSVVSALQGGRHYPLMG | 0.357 ± 0.33
FVFLISAL | -0.617 ± 0.5
FVGLVDN | 0.051 ± 0.49
FVGSRRGLARVAEYGWLYHG | -0.464 ± 0.74
FVHVYLERDRPNLTPFI | 0.084 ± 0.33
FVIDACIFC | 9.445 ± 0.071
FVLRTFQVDNSRQDTTNVST | 0.309 ± 0.48
FVMRAFNLIRWVGSACNLET | inactive
FVNFWN | 0.473 ± 0.53
FVPVKFITIGSYVLHTGSLL | 0.834 ± 0.73
FVSPVTSSQNSPVIVVRSLL | -0.561 ± 0.48
FVYLR | 0.98 ± 0.55

Substance | amyloid nucleation score
FWNLVF | 1.36 ± 0.64
FWSLYD | 0.003 ± 0.4
FYASQRSTPHAVFLCNALKV | 0.304 ± 0.52
FYCVDN | 0.547 ± 0.65
FYFRHSVLMCKHLFQFDYKE | 0.668 ± 0.45
FYGTLVCVRRYSVVLNSNLE | 0.751 ± 0.93
FYLLTGLFSQVGTLLFHWSR | -0.819 ± 0.51
FYVLATFSNC | 0.618 ± 0.4
FYVMCSARSQHAFSNKYLGY | -0.165 ± 0.26
GAGIENPSASVIMKREWEVL | 0.382 ± 0.44
GAVARIIDAVCVRLV | -0.643 ± 1.1
GAVIRRWVIGSGALRDSCND | 0.382 ± 1.2
GCCSEDFNINGVFCSCPKFC | 7.157 ± 0.057
GCDYARPINWCDTPYGSFNL | -2.49 ± 2.4
GCGRGMLLGFAPWITCPWMS | 0.971 ± 0.49
GCRGFLIPRMVYS | -0.398 ± 0.97
GCSIEFFDYGGY | -0.183 ± 0.74
GCYWIMAMGQILRRLEDAAG | 1.14 ± 0.72
GDDVRRPVVSVHNSRGYSFG | -0.235 ± 0.32
GDGVGFVLITHWDVVDDMGC | 0.724 ± 0.93
GDIRGQMCMWYLW | -1.73 ± 2.7
GDRRLSVLGPYMARSVWGER | -0.242 ± 0.31
GDSVESQILLVVGCIY | -0.416 ± 1.2
GEERHAAYTNWFFLRCLLTY | -0.046 ± 0.65
GEFVWKEASATCCSWGKLRR | 0.425 ± 0.72
GEQGNPIIESSREFSSVEHN | 4.33 ± 0.078

Substance | amyloid nucleation score
GESCLDSRFRNDDNR | 0.09 ± 0.33
GESRGS | 0.473 ± 0.43
GETLEVWFFRRRVIRWR | inactive
GFFLSPLVRIISMTEMKVMK | 0.571 ± 1.2
GFGSMLVEVTLYSAVAVAAR | 0.852 ± 0.52
GFGWLCYCGPYNLGRFSLSV | -0.124 ± 0.66
GFLNYHWAGSYFERGM | 3.04 ± 0.13
GFPSRSIHFKLYLAANMQ | 1.07 ± 0.53
GFSMTKCAYTNTH | 1.68 ± 0.17
GFVGFTGF | 0.308 ± 0.77
GGDRGHMFGMKSATVRWLAY | 0.572 ± 0.45
GGESQFLGFTHCKLAFCSWW | 0.236 ± 0.5
GGFFALTYVWSHVHRWS | inactive
GGFHYAVDWSCLRNIVWADL | -1.2 ± 2.4
GGLCTLVVAVGDSWIDRR | -0.34 ± 0.43
GGLRWRRCFLP | -1.58 ± 0.93
GGQFHEEFSNEINEVQDCVL | -0.15 ± 0.75
GGQSS | 2.97 ± 0.16
GGRSS | -0.058 ± 0.58
GGSDFWIGN | 0.277 ± 0.48
GGTNFKDDDV | 0.683 ± 1
GGTRDVFEFHNSDTPDAVYQ | -0.043 ± 0.3
GGVGLDWLEVVFVCTRGQYD | inactive
GGYWWQDRRHGPILYLVFWA | 0.552 ± 0.34
GHHLSVWRSNSCSCVWSITD | -0.184 ± 0.4
GHLENPFDERASCWRITADG | 1.25 ± 0.74

Substance | amyloid nucleation score
GHTVVSSWALNFEYGFQLGY | 0.05 ± 0.5
GIGFNHVSHLVKENS | -0.192 ± 0.97
GIHSLFMVAIYFAYWLRKWV | -0.877 ± 1.6
GIISASSVNTQRWTSGTNTC | inactive
GIKFNWENLARVLESNVFF | 1.53 ± 0.46
GILFVFFQYF | 1.95 ± 0.15
GIRMRGVSDLSLLRM | 0.163 ± 0.77
GIRMRSKNYGSWWFPLLYGE | 0.827 ± 0.84
GIRPPGKCMGWYLHMKFQSS | -0.391 ± 0.59
GISGLVLSYGADSGPGTWGK | -0.63 ± 0.42
GIVGGDQYMLFNLYVGFSYP | 1.45 ± 0.15
GIVRVKSTCERSPDSATYDL | -0.205 ± 0.91
GIWIRVSLAMRVTTSRRLGN | 2.57 ± 0.17
GIYNLHQFTCLFEAAAIACD | -0.478 ± 0.79
GIYSFGLCVGDIS | -0.623 ± 0.34
GKERCDRMNKTLFLTFSYII | -0.281 ± 0.71
GKHSLSPVYLWYGNNY | 0.707 ± 0.52
GKKAYALGMSYLESCL | 1.37 ± 0.73
GKLSDINCLYSSDSLGCLGL | 0.815 ± 0.9
GKMLFRGSGIRPCGALIGVK | -0.561 ± 1.1
GKRLQ | -0.249 ± 1.2
